Measured values from patent US20250312499A1, “KISSPEPTIN RECEPTOR (KISS1R) TARGETED THERAPEUTICS AND USES THEREOF” (priority 2024, published 2025).
Numbered stars: 1 amine (or outer) side, 2 acyl side, 3 side chain; on linkers, the order of the positions; unused ones are H or OH. Square brackets hold non-standard residues; d marks the D form. Primed or numbered codes have the meaning given here. Side chains are listed from the residue outwards. Ends that are not written are not given here. * marks the point of attachment. X2 = 4‑amino‑1‑((3-fluoro-4-methylbenzyl)glycyl)piperidine‑4‑carboxylic acid, Cc1ccc(CN(CC(=O)N2CCC(N[*:1])(C(=O)[*:2])CC2)[*:3])cc1F; DOTA = O=C(O)CN1CCN(CC(=O)O)CCN(CC(=O)*)CCN(CC(=O)O)CC1; Piperidine‑2‑carboxylic_acid(MeGly) = not defined here; Ala(9-anthryl) = N[C@@H](Cc1c2ccccc2cc2ccccc12)C(=O)O; Butanoyl(4-(4-I-phenyl)) = O=C(CCCc1ccc(I)cc1)*; Bpa = N[C@@H](Cc1ccc(C(=O)c2ccccc2)cc1)C(=O)O; Api(1-amidino) = N=C(N)N1CCC(N)(C(=O)O)CC1; Bip = N[C@@H](Cc1ccc(-c2ccccc2)cc1)C(=O)O; γGlu = O=C(O)[C@H](CCC(=O)[*:2])N[*:1]; d2Nal = N[C@H](Cc1ccc2ccccc2c1)C(=O)O; εLys = N[C@@H](CCCCN[*:1])C(=O)[*:2]; Adipoyl = O=C(CCCCC(=O)[*:2])[*:1]; Palmitoyl = CCCCCCCCCCCCCCCC(=O)*; Hyp = O=C(O)[C@@H]1C[C@@H](O)CN1; 4Pal = N[C@@H](Cc1ccncc1)C(=O)O; d4Pal = N[C@H](Cc1ccncc1)C(=O)O; Cha = N[C@@H](CC1CCCCC1)C(=O)O; 4Amb = NCc1ccc(C(=O)O)cc1; Pip = O=C(O)[C@@H]1CCCCN1; PEG4′ = not defined here; dCsA = not defined here; Ahx = NCCCCCC(=O)O; azaGly = NNC(=O)O

B1: Compound 113 (peptide)
peptide: {DOTA-Ahx}-[dY][dW]NAF[azaGly]L[X2]L-NH2
SMILES: Cc1ccc(CNCC(=O)N2CCC(NC(=O)[C@H](CC(C)C)NC(=O)NNC(=O)[C@H](Cc3ccccc3)NC(=O)[C@H](C)NC(=O)[C@H](CC(N)=O)NC(=O)[C@@H](Cc3c[nH]c4ccccc34)NC(=O)[C@@H](Cc3ccc(O)cc3)NC(=O)CCCCCNC(=O)CN3CCN(CC(=O)O)CCN(CC(=O)O)CCN(CC(=O)O)CC3)(C(=O)N[C@@H](CC(C)C)C(N)=O)CC2)cc1F
B2: Compound 115 (peptide)
peptide: {DOTA-dCsA-Ahx}-[dY][dW]NTF[azaGly]L[X2]W-NH2
modifications: not fully specified; reading uncertain
B3: Compound 117 (peptide)
peptide: [dY][dW]NTF[azaGly]L[X2]W-NH2
modifications: not fully specified (N-terminus); also: N-terminal Lys linked through its epsilon amine to adipoyl, which acylates D-Tyr1
B4: Compound 119 (peptide)
peptide: Palmitoyl-[γGlu]K([PEG4′-DOTA])[dY][dW]NTF[azaGly]L[X2]W-NH2
B5: Compound 132 (peptide)
peptide: {DOTA-4Amb-Met-Val-εLys-Adipoyl}-F[azaGly]L[X2]W-NH2
B6: Compound 133 (peptide)
peptide: {DOTA-Met-Val-εLys-Adipoyl}-[dY][dW]NTF[azaGly]L[X2]W-NH2
B7: Compound 140 (peptide)
peptide: {DOTA-Ahx}-[dY][dW]NTF[azaGly]L[4‑amino‑1‑((4-methoxybenzyl)glycyl)piperidine‑4‑carboxylic acid]F-NH2
B8: Compound 183 (peptide)
peptide: {DOTA}-[Ahx][dY][Bpa]NTF[azaGly]L[Api(1-amidino)]W-NH2
SMILES: CC(C)C[C@H](NC(=O)NNC(=O)[C@H](Cc1ccccc1)NC(=O)[C@@H](NC(=O)[C@H](CC(N)=O)NC(=O)[C@H](Cc1ccc(C(=O)c2ccccc2)cc1)NC(=O)[C@@H](Cc1ccc(O)cc1)NC(=O)CCCCCNC(=O)CN1CCN(CC(=O)O)CCN(CC(=O)O)CCN(CC(=O)O)CC1)[C@@H](C)O)C(=O)NC1(C(=O)N[C@@H](Cc2c[nH]c3ccccc23)C(N)=O)CCN(C(=N)N)CC1
B9: Compound 184 (peptide)
peptide: {DOTA}-[Ahx][dY][Ala(9-anthryl)]NTF[azaGly]L[Api(1-amidino)]W-NH2
SMILES: CC(C)C[C@H](NC(=O)NNC(=O)[C@H](Cc1ccccc1)NC(=O)[C@@H](NC(=O)[C@H](CC(N)=O)NC(=O)[C@H](Cc1c2ccccc2cc2ccccc12)NC(=O)[C@@H](Cc1ccc(O)cc1)NC(=O)CCCCCNC(=O)CN1CCN(CC(=O)O)CCN(CC(=O)O)CCN(CC(=O)O)CC1)[C@@H](C)O)C(=O)NC1(C(=O)N[C@@H](Cc2c[nH]c3ccccc23)C(N)=O)CCN(C(=N)N)CC1
B10: Compound 185 (peptide)
peptide: {DOTA}-[Ahx][dY][d2Nal]NTF[azaGly]L[Api(1-amidino)]Y-NH2
SMILES: CC(C)C[C@H](NC(=O)NNC(=O)[C@H](Cc1ccccc1)NC(=O)[C@@H](NC(=O)[C@H](CC(N)=O)NC(=O)[C@@H](Cc1ccc2ccccc2c1)NC(=O)[C@@H](Cc1ccc(O)cc1)NC(=O)CCCCCNC(=O)CN1CCN(CC(=O)O)CCN(CC(=O)O)CCN(CC(=O)O)CC1)[C@@H](C)O)C(=O)NC1(C(=O)N[C@@H](Cc2ccc(O)cc2)C(N)=O)CCN(C(=N)N)CC1
B11: Compound 198 (peptide)
peptide: {DOTA}-[Ahx][dY][Bip]NTF[azaGly]L[Api(1-amidino)]W-NH2
SMILES: CC(C)C[C@H](NC(=O)NNC(=O)[C@H](Cc1ccccc1)NC(=O)[C@@H](NC(=O)[C@H](CC(N)=O)NC(=O)[C@H](Cc1ccc(-c2ccccc2)cc1)NC(=O)[C@@H](Cc1ccc(O)cc1)NC(=O)CCCCCNC(=O)CN1CCN(CC(=O)O)CCN(CC(=O)O)CCN(CC(=O)O)CC1)[C@@H](C)O)C(=O)NC1(C(=O)N[C@@H](Cc2c[nH]c3ccccc23)C(N)=O)CCN(C(=N)N)CC1
B12: Compound 201 (peptide)
peptide: {DOTA}-[Ahx][dY][d2Nal]NTF[azaGly]L[Piperidine‑2‑carboxylic_acid(MeGly)]W-NH2
modifications: not fully specified; reading uncertain
B13: Compound 221 (peptide)
peptide: {DOTA}-[dY][3‑(9-anthryl)alanine]NTF[azaGly]L[Api(1-amidino)][4Pal]-NH2
B14: Compound 222 (peptide)
peptide: {DOTA-Ahx}-[dY][3‑(9-anthryl)alanine]NTF[azaGly]L[Api(1-amidino)][4Pal]-NH2
B15: Compound 269 (peptide)
peptide: {DOTA-Ahx}-[dY][d2Nal]NTF[azaGly]L[Api(1-amidino)]W-NH2
B16: Compound 299 (peptide)
peptide: {DOTA-Ahx}-[dY][d4Pal]NTF[azaGly]L[Apc(OMe)][4Pal]-NH2
B17: Compound 300 (peptide)
peptide: {DOTA-Ahx}-[dY][d2Nal]NTF[azaGly]L[Api(1-amidino)]F-NH2
SMILES: CC(C)C[C@H](NC(=O)NNC(=O)[C@H](Cc1ccccc1)NC(=O)[C@@H](NC(=O)[C@H](CC(N)=O)NC(=O)[C@@H](Cc1ccc2ccccc2c1)NC(=O)[C@@H](Cc1ccc(O)cc1)NC(=O)CCCCCNC(=O)CN1CCN(CC(=O)O)CCN(CC(=O)O)CCN(CC(=O)O)CC1)[C@@H](C)O)C(=O)NC1(C(=O)N[C@@H](Cc2ccccc2)C(N)=O)CCN(C(=N)N)CC1
B18: Compound 301 (peptide)
peptide: {DOTA-Ahx}-[d2Nal]NTF[azaGly]L[Api(1-amidino)]F-NH2
SMILES: CC(C)C[C@H](NC(=O)NNC(=O)[C@H](Cc1ccccc1)NC(=O)[C@@H](NC(=O)[C@H](CC(N)=O)NC(=O)[C@@H](Cc1ccc2ccccc2c1)NC(=O)CCCCCNC(=O)CN1CCN(CC(=O)O)CCN(CC(=O)O)CCN(CC(=O)O)CC1)[C@@H](C)O)C(=O)NC1(C(=O)N[C@@H](Cc2ccccc2)C(N)=O)CCN(C(=N)N)CC1
B19: Compound 309 (peptide)
peptide: {DOTA-Ahx}-[dK](4‑(p-tolyl)butanoyl)[dY][d2Nal]NTF[azaGly]L[Api(1-amidino)]F-NH2
B20: Compound 310 (peptide)
peptide: {DOTA-Ahx}-[dK](Butanoyl(4-(4-I-phenyl)))[dY][d2Nal]NTF[azaGly]L[Api(1-amidino)]F-NH2
SMILES: CC(C)C[C@H](NC(=O)NNC(=O)[C@H](Cc1ccccc1)NC(=O)[C@@H](NC(=O)[C@H](CC(N)=O)NC(=O)[C@@H](Cc1ccc2ccccc2c1)NC(=O)[C@@H](Cc1ccc(O)cc1)NC(=O)[C@@H](CCCCNC(=O)CCCc1ccc(I)cc1)NC(=O)CCCCCNC(=O)CN1CCN(CC(=O)O)CCN(CC(=O)O)CCN(CC(=O)O)CC1)[C@@H](C)O)C(=O)NC1(C(=O)N[C@@H](Cc2ccccc2)C(N)=O)CCN(C(=N)N)CC1
B21: Compound 311 (peptide)
peptide: {DOTA-Ahx}-[dY][Hyp]NTF[azaGly]L[Api(1-amidino)]W-NH2
SMILES: CC(C)C[C@H](NC(=O)NNC(=O)[C@H](Cc1ccccc1)NC(=O)[C@@H](NC(=O)[C@H](CC(N)=O)NC(=O)[C@@H]1C[C@@H](O)CN1C(=O)[C@@H](Cc1ccc(O)cc1)NC(=O)CCCCCNC(=O)CN1CCN(CC(=O)O)CCN(CC(=O)O)CCN(CC(=O)O)CC1)[C@@H](C)O)C(=O)NC1(C(=O)N[C@@H](Cc2c[nH]c3ccccc23)C(N)=O)CCN(C(=N)N)CC1
B22: Compound 317 (peptide)
peptide: {DOTA-Ahx}-[dY][d2Nal]NT[Cha][azaGly]L[Api(1-amidino)]W-NH2
SMILES: CC(C)C[C@H](NC(=O)NNC(=O)[C@H](CC1CCCCC1)NC(=O)[C@@H](NC(=O)[C@H](CC(N)=O)NC(=O)[C@@H](Cc1ccc2ccccc2c1)NC(=O)[C@@H](Cc1ccc(O)cc1)NC(=O)CCCCCNC(=O)CN1CCN(CC(=O)O)CCN(CC(=O)O)CCN(CC(=O)O)CC1)[C@@H](C)O)C(=O)NC1(C(=O)N[C@@H](Cc2c[nH]c3ccccc23)C(N)=O)CCN(C(=N)N)CC1
B23: Compound 337 (peptide)
peptide: {DOTA-Ahx}-[dK](Butanoyl(4-(4-I-phenyl)))[Ahx][dY][d2Nal]NTF[azaGly]L[Api(1-amidino)]W-NH2
SMILES: CC(C)C[C@H](NC(=O)NNC(=O)[C@H](Cc1ccccc1)NC(=O)[C@@H](NC(=O)[C@H](CC(N)=O)NC(=O)[C@@H](Cc1ccc2ccccc2c1)NC(=O)[C@@H](Cc1ccc(O)cc1)NC(=O)CCCCCNC(=O)[C@@H](CCCCNC(=O)CCCc1ccc(I)cc1)NC(=O)CCCCCNC(=O)CN1CCN(CC(=O)O)CCN(CC(=O)O)CCN(CC(=O)O)CC1)[C@@H](C)O)C(=O)NC1(C(=O)N[C@@H](Cc2c[nH]c3ccccc23)C(N)=O)CCN(C(=N)N)CC1
B24: Compound 339 (peptide)
peptide: {DOTA-Ahx}-[dY][d2Nal]NTF[azaGly]L[Pip][dW]-NH2
B25: Compound 371 (peptide)
peptide: {DOTA-Ahx}-[dY][d2Nal]NTF[azaGly]L[4‑amino‑1‑((4-iodobenzyl)glycyl)piperidine‑4‑carboxylic acid][dW]-NH2

Target: human kisspeptin receptor (KISS1R) (human), Q969F8
Sequence (Q969F8 whole entry): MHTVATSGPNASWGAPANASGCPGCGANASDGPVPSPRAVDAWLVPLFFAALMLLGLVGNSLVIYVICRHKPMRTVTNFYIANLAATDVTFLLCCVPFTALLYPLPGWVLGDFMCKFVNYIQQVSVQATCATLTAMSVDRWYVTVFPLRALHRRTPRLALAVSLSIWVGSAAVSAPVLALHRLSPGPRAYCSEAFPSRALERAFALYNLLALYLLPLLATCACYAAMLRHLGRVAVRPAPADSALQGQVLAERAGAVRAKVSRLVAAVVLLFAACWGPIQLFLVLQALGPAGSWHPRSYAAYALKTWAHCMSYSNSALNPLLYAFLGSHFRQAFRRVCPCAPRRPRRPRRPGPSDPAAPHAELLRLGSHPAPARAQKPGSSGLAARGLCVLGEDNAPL
Test: radioligand competition, hKISS1R membranes; legend: A is <10 nM

Ki, < 10 nM:
B1, B2, B3, B4, B5, B6, B7

Target: human kisspeptin receptor (KISS1R) (human) (UniProt Q969F8)
Sequence (Q969F8 whole entry): as above
Test: as above

Ki, < 10 nM:
B8, B9, B10, B11, B12, B13, B14, B15, B16, B17, B18, B19, B20, B21, B22, B23, B24, B25
